Assay results reported in article PMC10373554 (Journal of Virology, 2023).

Biological target: recombinant RBD protein of SARS-CoV (SARS-CoV (2003), strain of the bought …, UniProt P59594)
Test: SPR

B1: S2H97 (antibody, V domains shown)
VH: QVRLVQSGAEVKKSGESLKISCKGSGYSFTSYWIGWVRQMPGKGLEWMGIIYPGDSDTRYSPSFQGQVTISADKSISTVYLQWSSLKASDTAMYYCARQWSHYTYDYYYWGQGTLVTISS
VL: QSVLTQPASVSGSPGQSITISCTGISSDVGGYNSVSWYQQHPGKAPKLMIYDVTNRPSGVSNRFSGSKSGNTASLTISGLQAEDEADYYCSSYTSSSTPPYVFGTGTKVSVL
B1: binds.
